Test results from the DeepSol protein solubility set.

Assay: soluble on expression in E. coli; label from the status in PepcDB or PDB records

| Sequence | soluble on expression in E. coli |
| --- | --- |
| MGSDKIHHHHHHMHHSHHLEIYEKLREKLDKAPVGLPKTVSGVEKEILSVLFDEEEAKIAVHMPFIRFTAEQLAERTGKSLEYVEKILNEMAKKGTVWKGEKDGKTYYRLFPVIVGFAEMPFLAGPGRDARQEKLAPLWAKYRKEGFLDELGDREHAILRALPEKSTISKQSVILPYEDAEKLVRDRDYHAVGYCPCRIMARLIGEGCRHSLEVCLHFGSLGKYMVEHGYARRITADEAVEILRKSNREGLVHVTERSKGPISTICNCCSDCCAFFRAIHEAGHPKTIAHSSYVASVDSSKCIACGICMLRCPMKAVKAKINREPANVEAEKCLGCGVCVPTCPVEAIELVEREELQEWPDHLTYYQELLADRGKDPAGLF | not soluble |
| MQKIDEKLQLMNTIAKIYRGSIKEFNNRLGKLMNLSYLDFSILKATSEEPRSMVYLANRYFVTQSAITAAVDKLEAKGLVRRIRDSKDRRIVIVEITPKGRQVLLEANEVLRNLVNEMLSDVENVEELLEGLNKILSRIGSSKD | soluble |
| MSTHLQGSLFDQTDELGLGPLDGLRRTVLGAGAWIDLLPGWLSGADALFERLAADVPWRAERRKMYDQTVDVPRLLAYYRAGDTLPHPVLAEARDALSAHYVAELGEPFTTAGLCYYRDGRDSVAWHGDRIGRGAREDTMVAILSVGAPRDLALRPRGGGDVLRRPLGHGDLIVMGGSCQRTWEHAIPKSTRAAGPRISIQFRPSGVNLEHHHHHH | soluble |
| MAHHHHHHMEAVFYAFASFGTAPTKEMDNAHFSKMLKEAKIIGKTFTSTDADLLFNKIKAKGARKITFTEFNTRALPDIATKLKMTPEQVAEILTKASPASNSTKAEAVKFHDDKNLYTGVYKAGGPTNVDRNAGSLSGVVDRRVDQVDVRGTTSSQK | soluble |
| MGSDKIHHHHHHMAEDQTVLAIDIGGSHVKIGLSTDGEERKVESGKTMTGPEMVAAVTAMAKDMTYDVIAMGYPGPVVHNKPLREPVNLGEGWVGYDYEGAFGRPVRIVNDALMQAIGSYNGGRMLFLGLGTGLGAAMIVENVAQPMEIAHLPYRKGKTYEHYVSEAYREKKGNAKWQKRVQDVVERLSAALEPDEVVIGGGNVERLENLPPKCRRGDNAMAFEGGFRLWKNADLIV | not soluble |
| MAAPAALKRISATVWELPVSYKKGMLVPARIIATEKLINAMDAGVFEQVSNVACLPGIQKYAFCMPDGHWGYGFPIGGLAAMDPETGVISPGGIGFDINCGMRLVLTTLTYEEVKPRLRELVDALFYRVPAGVGSHGFVRLSHDEFCRVAEQGSSWCLKHGYAWPEDLEMTEEHGCFTGADATKVSQRAVDRGYNQIGTLGSGNHYLEVQVARPENIFDEDTARAFGITVPNQVVIMFHCGSRGFGHQVATDYLQLFLSVMEKKYGIRTNDRELACAPFRSREGQDYFAAMKCAVNMAFANRQVILHRIREVFSDVFGRDPGDLGMDMVYDVAHNTAKLETHLVDGKKRELLVHRKGATRAFGPGMEGIPARYRETGQPVIIGGSMETGSYLLAGDPGGGDTFFTTAHGSGRTMSRHQAKKLIKGQKLQRDMEERGIYVRTASWGGLAEEAGQAYKNIDDVAEATELSHLSRRVARLVPIGNVKGLEHHHHHH | not soluble |
| MVLARREALDPRYQYDAALAAAKKGEAAIAVPAGVMIAGYWPIRSEIDPRPLLSAFRAKGARLCLPVVLDAETIAFREFLPDAELVPTGFGTMGPDEHAPLVDPAIMLMPLAGFDRLGHRLGYGAGHYDRALARFAERGLQPLLIGMAFDCQEVDYVPNEPHDIALHQILTESGLRSRAMDLEHHHHHH | not soluble |
| MSEPTYFMPPEWAPHASTWLSWPHKLESWPGKFEPVPAVFAELAYQLSRSETVNINVLDDAMEAQARELLKERDPEGKYAERIVFHRIPTNDAWCRDHGPNYVIRTQDGRRDKVIMNWEYNAWGGKYEPYDDDNAVPERVAKAQGLPMVSTGMVLEGGAIDVNGAGLLLTTTACLLNPNRNPSLGKAEIEAQLRRYLGIEKVLWLGDGIAGDDTDGHVDDMARFVNENTVVIAVEEDPEDENYKPLRENYELLKTMTGLDGKPLNIVKLPMPEPVYYDGERLPASYANFYIANTVVLVPTYRCPRDQQAIDILQQCFPKREVVGIDCSDLIWGLGAIHCVTHEEPAMLEHHHHHH | soluble |
| MIAASDLKAGMTFEQDGKLIKVMEASHHKPGKGNTVMRMKLKDVRTGSTTDTTMRPDEKVKKAHIDTKPVQYLYSQDDMAIFMDLETYEQYEVPTALIEEELKYLLENMEVKIQFYGEEVIGLTLPTTVILRVAETQPSIKGATVTGSGKPATMETGLVVNVPDFVEADELLEINTAEGTYLKRAK | not soluble |
| MSIIEDNKISFVIPTINEEKTIGSVIDGIHENFPNAEIILVDTNSTDKTKEIAKSKGATVIEEPRKGYGRAYQTGIPAAKGDIIVCMDGDGTYPTDIVKPLIEILILDKVDFISCDRITFRTSTNYTTLHYVGNMVLNLTIRILFKVRMVDSQSGMWIFRSELYKKMKNLGYGMSFSQNIKIEAVRHGVFIEIPIRYGVRITKPKLKTWHDGFHNLFALFIKRVSELEHHHHHH | soluble |
| MRFLTAGESHGPELLAIIEGLPAGLPLSEEDINPWLEKRQKGYGRGRRMVIERDRVEFRAGVRGGRTTGAPVALAIKNADFKNWAEIMDPAPGNWPRKRALTAARPGHADLAGGMKYGHKDLRDVLERASARETAMRVAVGAVALKLLSLLGVEGVGYVPGMAGVWAKVPFSWDLVPRIEESPLRMTDPEAEAEAIRRIDQAKAEGDTLGGIIEARFRGLVPGLGSHVHWDRKLDGRLAQMALSIPAVKGVEIGPAFENAMKRGSEVHDAIYWSPERGFYRKTNRAGGLEGGMTTGEELVVRAALKPIATLMKPLPTVDVVTHEPKDAARERSDTTAVPAASVILCALSAIVLAQAYLEKFGGDTMEEIQERVERYRERVRAY | soluble |
| MGSDKIHHHHHHMGFYEEMIRRIAADADPAACVEEIRIYANWVLVKTGKWSISTYFHGMPGFTDPAGMGTWMGDWIGRPARAAALELLVSREILKRSVGMACLKSLLPDPPATIAGGAIELVEPAACRIPTCFIGYFKTAAAWREKGYPVTIVELFPRPGDIHWNEADEVLEKAELVLMTGLTVVNETLEAVIRRTPSARMRIIMGPTVPASPVLFDYGIDMLGITQIDDVELMSNYALLGGGSIANAPAGALRSLNMARDLRALQERISALAR | not soluble |
| LGTERQREHPFIVTEPGEVARGKKNGLDYLFHLYEQCREFLLQVQTIAKDRGEKCPTKVTNQVFRYAKKSGASYINKPKMRHYVHCYALHCLDEEASNALRRAFKERGENVGSWRQACYKPLVNIACRHGWDIDAVFNAHPRLSIWYVPTKLRQLCHLERNNAVAAAAALVGGISCTGSSTSGRGGCGGDDLRF | soluble |
| MVERKRWSEEFSEWFNEVIEEAGILDKRYPVKGMNVWLPYGLKIMRNIEKFIHEEMERTGHQEVLFPALIPETEFKKEAEHIAGFEGEVFWVTHAGHEPLDVRLVLRPTSETAMYSMFALWIRSHADLPFKVYQIVNVYRYETKHTRPLIRVREISRFFEAHTAHADFEDAERQIKEDLEIFDNLMRKLALAYIISKRPEWDKFPGAFYSLGAEVVMPDGRTLQIGTMHNYKQNFSKAYNILYEKEDGTHDYVHQTTFGMSERLLAAVIAIHGDDRGMVLPPTIAPIQVVIVPIPKKGSEEEVYSYAKGIEEELRDAGIRVYLDLRDKRPGWKFYDWELKGVPVRVEVGPIDVQNSTVVLARRDKLEKITVKREELVDKVRELFEDIMEFLYERANEWLESHIKRVDTLEEAKAVFEDRRGIVEIPWCGEESCGLKMEEELEAKMLGIPYPEEKAKAPEGSKCPVCGREAKFIARFARTY | soluble |
| MGHHHHHHSHGSHVKVKSFEKERQTEKRVLETELVDHVLQKLRTKVTDERNGREASDNLAVQNLKGSFSNASGLFEIHGATVVPIVSVLAPEKLSASTRRRYETQVQTRLQTSLANLHQKSSEIEILAVDLPKETILQFLSLEWDADEQAFNTTVKQLLSRLPKQRYLKLVCDEIYNIKVEKKVSVLFLYSYRDDYYRILF | not soluble |
| VSPKTYKDADFYVAPTQQDVNYDLVDDFGANGNDTSDDSNALQRAINAISRKPNGGTLLIPNGTYHFLGIQMKSNVHIRVESDVIIKPTWNGDGKNHRLFEVGVNNIVRNFSFQGLGNGFLVDFKDSRDKNLAVFKLGDVRNYKISNFTIDDNKTIFASILVDVTERNGRLHWSRNGIIERIKQNNALFGYGLIQTYGADNILFRNLHSEGGIALRMETDNLLMKNYKQGGIRNIFADNIRCSKGLAAVMFGPHFMKNGDVQVTNVSSVSCGSAVRSDSGFVELFSPTDEVHTRQSWKQAVESKLGRGCAQTPYARGNGGTRWAARVTQKDACLDKAKLEYGIEPGSFGTVKVFDVTARFGYNADLKQDQLDYFSTSNPMCKRVCLPTKEQWSKQGQIYIGPSLAAVIDTTPETSKYDYDVKTFNVKRINFPVNSHKTIDTNTESSRVCNYYGMSECSSSRWER | soluble |
| MGSDKIHHHHHHMGGIYRLSLKSTEATAERLSCDTRCNYEDRDLAYSPDGRWLAIARRFSNISEDIFIRDLASAHEKRLTQGLEDIRGLSWTPDSQALVFATEDSGSSNGFTLDINTAQIRSLDVEGMSYPSSVSAEGELVYHQYHRQFQMAYFSLGDKVPGSLFPLLYSGVSHRNPDYSPEAKRIVFVSSETGYNEIWTSDINGQKLEQLTQLKSRVAYPRWSPDGSRIAFIAPDDRNEGNRIFILDLTNKNITALASSYHNHGRPSWNWQGTAVLASTADGITEFYLDNRAPRVISSLSMAVGFAKSATELVFSRDGENGLWQINLTQPEHVEQLISTDAFRAGNNWVLTASGVYFKSSNGHEQLLNYWEASSQQVTSLLRVPRSSLSGFGSMTYIPEANRLVMTLDGFPQRDIILLKHKLLK | not soluble |
| MQFSCSIPLPATFRPGDILAFHRRDRQEIAERVNHASVQKAMIWCGAPAYLSISFEPGLAKASLVIDGKIAEDRQPIFEGMVRRMLGLTQEIEIFEERYRDHPQLGILIAQQPGLRVPVTATPFEALTWAVTGQQISVNAAVSLRRKLIGATNTPHSCGLFCYPDARRILELPEETLRQAGFSTTKTRTLLALSALVADNELPLDAWVETLPVDVIREKLEAVRGIGPWTVNYGLLRGFGWLDGSLHGDAAVRRGLQALLGAQDKISEENTKVWLAQFSPWRALVGAHLWAAPVAIALEHHHHHH | not soluble |
| MGSDKIHHHHHHMFLTKVSLLDHPESLPGYLSSLAIVEYLHEQPLEFRAPITVITGENGVGKSTLVEALAVGMRLNPSGGSRHANFGREGDIVSSLHQSLKLVRRENPRDAFFFRGETMYNVASYYEELMGEKNMHDLHKMSHGESVFAVIDRRFNNQGFFVLDEPEAGLSMLRQLELLGKLGNLARGGAQIIMATHSPILLAIPGAEILEITSSGVAKVNFEDAEAVRAAREFVADPRGTAAFLTAEEDHQ | not soluble |
| MGSDKIHHHHHHMSADGSEYGRYFEQLQKVNLTVRLGDTGSFDGTAAITSLKGSLAWLELFGAEQPPPNTLSEGAEVSVSVWTGGALCRCDGRVETLRDDRQFAIRLVGRVRELQRREYFRLDVSIPFSYELLAGVSPEEAQERWLHERMDSWRSPAMVQEGSSWRVVDWNGRDIPSARANLSGGGMRFRVSEDVASGTLMLVSLFLPHPQPRVICVLAEALRCAEITLTLQAGTHYSLSMRFITISDKDREAVISYLFSEQRRELMSKSDRFQIGGRR | not soluble |
